# T1: FlagRhlB^P238L (Flag-tagged RhlB^P238L) (Escherichia coli, UniProt P0A8J8 1-421, P238L)
# T1 sequence: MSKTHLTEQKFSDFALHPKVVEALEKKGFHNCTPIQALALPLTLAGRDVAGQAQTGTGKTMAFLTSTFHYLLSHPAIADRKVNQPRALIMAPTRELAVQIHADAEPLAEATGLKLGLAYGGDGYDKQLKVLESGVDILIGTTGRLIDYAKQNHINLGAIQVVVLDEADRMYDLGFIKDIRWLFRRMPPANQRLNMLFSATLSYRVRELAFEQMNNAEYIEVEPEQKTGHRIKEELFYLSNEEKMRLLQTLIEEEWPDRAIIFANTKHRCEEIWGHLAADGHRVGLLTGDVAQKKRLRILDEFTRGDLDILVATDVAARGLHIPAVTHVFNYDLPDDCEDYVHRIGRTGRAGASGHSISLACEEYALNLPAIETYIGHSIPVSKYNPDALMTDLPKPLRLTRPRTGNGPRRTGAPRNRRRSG
# T2: FlagPNPase (Flag-tagged PNP) (Escherichia coli, UniProt P05055 1-711)
# T2 construct: polynucleotide phosphorylase (PNPase) of Escherichia coli; also called pFlagPNP; polynucleotide phosphorylase
# T2 sequence (looked up): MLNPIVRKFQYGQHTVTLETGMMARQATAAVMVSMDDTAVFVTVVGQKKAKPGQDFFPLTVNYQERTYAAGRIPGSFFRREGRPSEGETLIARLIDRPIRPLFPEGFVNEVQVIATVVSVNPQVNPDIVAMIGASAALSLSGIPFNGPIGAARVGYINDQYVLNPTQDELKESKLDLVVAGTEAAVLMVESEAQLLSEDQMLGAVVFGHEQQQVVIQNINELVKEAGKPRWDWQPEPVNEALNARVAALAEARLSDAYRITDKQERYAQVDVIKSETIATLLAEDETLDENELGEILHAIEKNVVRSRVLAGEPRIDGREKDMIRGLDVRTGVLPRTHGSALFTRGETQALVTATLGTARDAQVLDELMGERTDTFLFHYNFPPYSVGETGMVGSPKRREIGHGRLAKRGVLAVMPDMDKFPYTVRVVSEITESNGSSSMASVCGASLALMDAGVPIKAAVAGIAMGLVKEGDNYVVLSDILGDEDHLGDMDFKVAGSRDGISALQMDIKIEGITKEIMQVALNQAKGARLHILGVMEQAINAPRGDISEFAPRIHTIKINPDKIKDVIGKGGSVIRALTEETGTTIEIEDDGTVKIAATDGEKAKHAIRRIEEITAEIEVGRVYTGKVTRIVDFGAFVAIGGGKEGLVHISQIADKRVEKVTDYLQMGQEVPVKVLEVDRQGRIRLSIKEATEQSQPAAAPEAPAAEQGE
# B1: FlagPNPase (Flag-tagged PNP) (enzyme)
# chain: MLNPIVRKFQYGQHTVTLETGMMARQATAAVMVSMDDTAVFVTVVGQKKAKPGQDFFPLTVNYQERTYAAGRIPGSFFRREGRPSEGETLIARLIDRPIRPLFPEGFVNEVQVIATVVSVNPQVNPDIVAMIGASAALSLSGIPFNGPIGAARVGYINDQYVLNPTQDELKESKLDLVVAGTEAAVLMVESEAQLLSEDQMLGAVVFGHEQQQVVIQNINELVKEAGKPRWDWQPEPVNEALNARVAALAEARLSDAYRITDKQERYAQVDVIKSETIATLLAEDETLDENELGEILHAIEKNVVRSRVLAGEPRIDGREKDMIRGLDVRTGVLPRTHGSALFTRGETQALVTATLGTARDAQVLDELMGERTDTFLFHYNFPPYSVGETGMVGSPKRREIGHGRLAKRGVLAVMPDMDKFPYTVRVVSEITESNGSSSMASVCGASLALMDAGVPIKAAVAGIAMGLVKEGDNYVVLSDILGDEDHLGDMDFKVAGSRDGISALQMDIKIEGITKEIMQVALNQAKGARLHILGVMEQAINAPRGDISEFAPRIHTIKINPDKIKDVIGKGGSVIRALTEETGTTIEIEDDGTVKIAATDGEKAKHAIRRIEEITAEIEVGRVYTGKVTRIVDFGAFVAIGGGKEGLVHISQIADKRVEKVTDYLQMGQEVPVKVLEVDRQGRIRLSIKEATEQSQPAAAPEAPAAEQGE
# Legend:
# [1] = target: T1, FlagRhlB^P238L (Flag-tagged RhlB^P238L); test: SPR
# [2] = target: T1, FlagRhlB^P238L (Flag-tagged RhlB^P238L); test: SPR; remark: listed apart in the source
# [3] = target: T2, FlagPNPase (Flag-tagged PNP); test: SPR; Biacore X; purified FlagPNPase immobilised on a CM5 chip by amine coupling; 0.75 to 24 uM FlagRhlB injected at 10 ul/min, 25 °C; settings: both partners purified
# [4] = target: B1; test: SPR
# [5] = target: B1; test: SPR
Binder,koff [1],Kd [2],kon [3],koff [4],Kd [5]
B1,0.00207 s⁻¹,6.64 µM,–,–,–
"FlagRhlB^wt (Flag-tagged wild-type RhlB) (enzyme, Escherichia coli, UniProt P0A8J8 1-421, looked up, RNA helicase B (RhlB) of Escherichia coli; also called pFlagRhlB^wt) MSKTHLTEQKFSDFALHPKVVEALEKKGFHNCTPIQALALPLTLAGRDVAGQAQTGTGKTMAFLTSTFHYLLSHPAIADRKVNQPRALIMAPTRELAVQIHADAEPLAEATGLKLGLAYGGDGYDKQLKVLESGVDILIGTTGRLIDYAKQNHINLGAIQVVVLDEADRMYDLGFIKDIRWLFRRMPPANQRLNMLFSATLSYRVRELAFEQMNNAEYIEVEPEQKTGHRIKEELFYPSNEEKMRLLQTLIEEEWPDRAIIFANTKHRCEEIWGHLAADGHRVGLLTGDVAQKKRLRILDEFTRGDLDILVATDVAARGLHIPAVTHVFNYDLPDDCEDYVHRIGRTGRAGASGHSISLACEEYALNLPAIETYIGHSIPVSKYNPDALMTDLPKPLRLTRPRTGNGPRRTGAPRNRRRSG",–,–,1260 M⁻¹ s⁻¹,0.0021 s⁻¹,1.67 µM
"FlagRhlB^P238L (Flag-tagged RhlB^P238L) (enzyme, Escherichia coli, UniProt P0A8J8 1-421, looked up, RNA helicase B (RhlB) of Escherichia coli with P238L, introduced into pFlagRhlB by site-directed mutagenesis; also called pFlagRhlB^P238L) MSKTHLTEQKFSDFALHPKVVEALEKKGFHNCTPIQALALPLTLAGRDVAGQAQTGTGKTMAFLTSTFHYLLSHPAIADRKVNQPRALIMAPTRELAVQIHADAEPLAEATGLKLGLAYGGDGYDKQLKVLESGVDILIGTTGRLIDYAKQNHINLGAIQVVVLDEADRMYDLGFIKDIRWLFRRMPPANQRLNMLFSATLSYRVRELAFEQMNNAEYIEVEPEQKTGHRIKEELFYLSNEEKMRLLQTLIEEEWPDRAIIFANTKHRCEEIWGHLAADGHRVGLLTGDVAQKKRLRILDEFTRGDLDILVATDVAARGLHIPAVTHVFNYDLPDDCEDYVHRIGRTGRAGASGHSISLACEEYALNLPAIETYIGHSIPVSKYNPDALMTDLPKPLRLTRPRTGNGPRRTGAPRNRRRSG",–,–,311 M⁻¹ s⁻¹,–,–
